The labels stand for the following.
B1: tail fiber gp17 of bacteriophage T7 (natural protein, Escherichia coli bacteriophage T7, UniProt P03748 1-553, looked up)
chain: MANVIKTVLTYQLDGSNRDFNIPFEYLARKFVVVTLIGVDRKVLTINTDYRFATRTTISLTKAWGPADGYTTIELRRVTSTTDRLVDFTDGSILRAYDLNVAQIQTMHVAEEARDLTTDTIGVNNDGHLDARGRRIVNLANAVDDRDAVPFGQLKTMNQNSWQARNEALQFRNEAETFRNQAEGFKNESSTNATNTKQWRDETKGFRDEAKRFKNTAGQYATSAGNSASAAHQSEVNAENSATASANSAHLAEQQADRAEREADKLENYNGLAGAIDKVDGTNVYWKGNIHANGRLYMTTNGFDCGQYQQFFGGVTNRYSVMEWGDENGWLMYVQRREWTTAIGGNIQLVVNGQIITQGGAMTGQLKLQNGHVLQLESASDKAHYILSKDGNRNNWYIGRGSDNNNDCTFHSYVHGTTLTLKQDYAVVNKHFHVGQAVVATDGNIQGTKWGGKWLDAYLRDSFVAKSKAWTQVWSGSAGGGVSVTVSQDLRFRNIWIKCANNSWNFFRTGPDGIYFIASDGGWLRFQIHSNGLGFKNIADSRSVPNAIMVENE
notes: tail fiber protein gp17, Escherichia coli bacteriophage T7; only the N-terminus (a jelly-roll barrel and a 22-residue alpha-helix) was resolved; Native protein in the virion; six trimers a phage; The distal parts of the fibers were too flexible to be resolved; source: in mature T7 phage purified from cells
B2: nozzle protein gp12 of bacteriophage T7 (natural protein, Escherichia coli bacteriophage T7, UniProt P03747 1-794, looked up)
chain: MALISQSIKNLKGGISQQPDILRYPDQGSRQVNGWSSETEGLQKRPPLVFLNTLGDNGALGQAPYIHLINRDEHEQYYAVFTGSGIRVFDLSGNEKQVRYPNGSNYIKTANPRNDLRMVTVADYTFIVNRNVVAQKNTKSVNLPNYNPNQDGLINVRGGQYGRELIVHINGKDVAKYKIPDGSQPEHVNNTDAQWLAEELAKQMRTNLSDWTVNVGQGFIHVTAPSGQQIDSFTTKDGYADQLINPVTHYAQSFSKLPPNAPNGYMVKIVGDASKSADQYYVRYDAERKVWTETLGWNTEDQVLWETMPHALVRAADGNFDFKWLEWSPKSCGDVDTNPWPSFVGSSINDVFFFRNRLGFLSGENIILSRTAKYFNFYPASIANLSDDDPIDVAVSTNRIAILKYAVPFSEELLIWSDEAQFVLTASGTLTSKSVELNLTTQFDVQDRARPFGIGRNVYFASPRSSFTSIHRYYAVQDVSSVKNAEDITSHVPNYIPNGVFSICGSGTENFCSVLSHGDPSKIFMYKFLYLNEELRQQSWSHWDFGENVQVLACQSISSDMYVILRNEFNTFLARISFTKNAIDLQGEPYRAFMDMKIRYTIPSGTYNDDTFTTSIHIPTIYGANFGRGKITVLEPDGKITVFEQPTAGWNSDPWLRLSGNLEGRMVYIGFNINFVYEFSKFLIKQTADDGSTSTEDIGRLQLRRAWVNYENSGTFDIYVENQSSNWKYTMAGARLGSNTLRAGRLNLGTGQYRFPVVGNAKFNTVYILSDETTPLNIIGCGWEGNYLRRSSGI
notes: nozzle protein gp12, Escherichia coli bacteriophage T7; Native protein in the virion; hexameric tube; source: in mature T7 phage purified from cells
B3: adaptor protein gp11 of bacteriophage T7 (natural protein, Escherichia coli bacteriophage T7, UniProt P03746 1-196, looked up)
chain: MRSYDMNVETAAELSAVNDILASIGEPPVSTLEGDANADAANARRILNKINRQIQSRGWTFNIEEGITLLPDVYSNLIVYSDDYLSLMSTSGQSIYVNRGGYVYDRTSQSDRFDSGITVNIIRLRDYDEMPECFRYWIVTKASRQFNNRFFGAPEVEGVLQEEEDEARRLCMEYEMDYGGYNMLDGDAFTSGLLTR
notes: adaptor protein gp11, Escherichia coli bacteriophage T7; Native protein in the virion; dodecameric ring; also called tail adaptor; source: in mature T7 phage purified from cells; copies: 12
B4: portal protein gp8 of bacteriophage T7 (natural protein, Escherichia coli bacteriophage T7, UniProt P03728 1-536, looked up)
chain: MAEKRTGLAEDGAKSVYERLKNDRAPYETRAQNCAQYTIPSLFPKDSDNASTDYQTPWQAVGARGLNNLASKLMLALFPMQTWMRLTISEYEAKQLLSDPDGLAKVDEGLSMVERIIMNYIESNSYRVTLFEALKQLVVAGNVLLYLPEPEGSNYNPMKLYRLSSYVVQRDAFGNVLQMVTRDQIAFGALPEDIRKAVEGQGGEKKADETIDVYTHIYLDEDSGEYLRYEEVEGMEVQGSDGTYPKEACPYIPIRMVRLDGESYGRSYIEEYLGDLRSLENLQEAIVKMSMISSKVIGLVNPAGITQPRRLTKAQTGDFVTGRPEDISFLQLEKQADFTVAKAVSDAIEARLSFAFMLNSAVQRTGERVTAEEIRYVASELEDTLGGVYSILSQELQLPLVRVLLKQLQATQQIPELPKEAVEPTISTGLEAIGRGQDLDKLERCVTAWAALAPMRDDPDINLAMIKLRIANAIGIDTSGILLTEEQKQQKMAQQSMQMGMDNGAAALAQGMAAQATASPEAMAAAADSVGLQPGI
notes: portal protein gp8, Escherichia coli bacteriophage T7; domains clip (294-334), stem (335-356 and 269-293), wing (1-268, 357-427), crown (428-492), C-terminal helical barrel; Native protein in the virion; dodecamer at one vertex; The C-terminal barrel is not seen in capsid II; also called T7 portal; source: in mature T7 phage and T7 capsid II particles purified from cells; copies: 12

This series deals with the molecule itself. As to the kind of experiment: cryo-EM structure; mature T7 phage purified from cells; icosahedral, symmetry-mismatch and local reconstructions (shell 3.5 Å, asymmetric 7 Å, portal-tail complex 3.8 Å, core 6.0 Å).
On to B1, for which the stoichiometry N (usually the number of molecules, sites or subunits per partner or assembly) was 3.
Under B2 stands 6; under B3, 12; under B4, 12.

These data come from publication PMC7196576, “Structural changes of a bacteriophage upon DNA packaging and maturation” (Protein & Cell, 2020).
